Experimental findings from US20070282017A1 (Harvard, published 2007) are described below.

Series [1] concerns the target Endogenous Ser65-phosphorylated BIMEL in cerebellar granule neurons (UniProt O88498).
The target in another series is T1, Recombinant GST-Pin1 (UniProt Q13526 1-163).
T1 construct: Bait in GST pulldown assays; not shown: glutathione S-transferase (GST) fusion partner
The experiment in a line: GST-Pin1 pulldown from 293T lysates, anti-FLAG immunoblot. Background: In western blotting, separated proteins are transferred to a membrane and probed.

Sequence of Endogenous Ser65-phosphorylated BIMEL in cerebellar granule neurons (O88498 whole entry): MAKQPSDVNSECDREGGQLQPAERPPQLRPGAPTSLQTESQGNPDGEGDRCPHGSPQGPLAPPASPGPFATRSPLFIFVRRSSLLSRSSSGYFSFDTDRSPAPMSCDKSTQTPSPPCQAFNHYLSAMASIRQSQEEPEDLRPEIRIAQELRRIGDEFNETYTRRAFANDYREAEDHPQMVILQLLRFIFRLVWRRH
T1 sequence (Q13526 whole entry, the tested form may be a part): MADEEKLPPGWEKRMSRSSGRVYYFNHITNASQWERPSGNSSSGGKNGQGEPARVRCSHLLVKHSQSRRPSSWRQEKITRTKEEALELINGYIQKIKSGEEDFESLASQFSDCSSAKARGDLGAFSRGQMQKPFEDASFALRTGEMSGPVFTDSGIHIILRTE

For the molecule “Endogenous Pin1 in cerebellar granule neurons”, in series [1], the “BIMEL protein levels in granule neurons after Pin1 RNAi lentivirus (immunoblot)” value is 46±1.5% reduction.

B1: FLAG-tagged JIP3 fragment 144-241 (other, UniProt Q9ESN9 144-241, looked up)
chain: ADQISRLEERESEMKKEYNALHQRHTEMIQTYVEHIERSKMQQVGGSGQTESSLPGRSRKERPTSLNVFPLADGMVRAQMGGKLVPAGDHWHLSDLGQ
notes: Expressed in 293T cells; not shown: 3xFLAG tag of the 3xFLAG CMV-7.1 vector
For the molecule B1, the binding result with Recombinant GST-Pin1 is “no binding”.
